Data from the supplement of paper PMC7877785.
± gives the uncertainty stated by the source.

Assay: self-splicing fitness, log relative to wild type (ln ratio); higher = more splicing; Tetrahymena group I intron in knt gene, E. coli kanamycin selection, DiMSum; sequences stand for … in CUCUCU…GGAGGGAAAAGUUAUCAGGCAUGCACCUGGUAGCUAGUCUUUAAACCAAUAGAUUGCAUCGGUUUAAAAGGCAAGACCGUCAAAUUGCGGGAAAGGGGUCAACAGCCGUUCAGUACCAAGUCUCAGGGGAAACUUUGAGAUGGCCUUGCAAAGGGUAUGGUAAUAAGCUGACGGACAUGGUCCUAACCACGCAGCCAAGUCCUAAGUCAACAGAUCUUCUGUUGAUAUGGAUGCAGUUCACAGACUAAAUGUCGGUCGGGGAAGAUGUAUUCUUCUCAUAAGAUAUAGUCGGACCUCUCCUUAAUGGGAGCUAGCGGAUGAAGUGAUGCAACACUGGAGCCGCUGGGAACUAAUUUGUAUGCGAAAGUAUAUUGAUUAGUUUUGGAGUACUCGUGGUCG
In short: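 Pooled colonies went to amplicon sequencing on an Illumina HiSeq 2500 after six replicate transformations. The plates were LB agar with 100 μg/mL carbenicillin, 50 μM IPTG and 0.2% rhamnose, with or without 25 μg/mL kanamycin, incubated overnight at 37°C or 30°C. The E. coli BL21(DE3) library had all eight P1ex-region intron nucleotides randomised, the intron placed in the knt kanamycin-resistance gene on pET-22b(+). DiMSum fitness is the error-weighted combination of replicate fold changes, kanamycin against none, normalised to wild type.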

Sequence	self-splicing fitness (ln) (30 °C)	self-splicing fitness (ln) (37 °C)
UUCCAGCAAUAUUACGUUAC	-3.45 ± 0.43	-2.57 ± 0.25
ACACAGCAAUAUUACGUGAG	-1.02 ± 0.05	0.121 ± 0.074
UCCUAGCAAUAUUACGACCU	-3.41 ± 0.48	-1.76 ± 0.31
UGGCAGCAAUAUUACGUGCU	-2.71 ± 0.14	-1.79 ± 0.17
AGCGAGCAAUAUUACGCUUU		-2.89 ± 0.27
CAGUAGCAAUAUUACGCUUC	-3.45 ± 0.3	-2.74 ± 0.28
AGAGAGCAAUAUUACGAGAG		-2.3 ± 0.44
UCUUAGCAAUAUUACGGAGU	-3.29 ± 0.13	-2.28 ± 0.11
GUUGAGCAAUAUUACGUACU	-2.91 ± 0.25	-2.15 ± 0.2
CUUUAGCAAUAUUACGGGGA	-2.88 ± 0.19	-1.38 ± 0.17
UUCAAGCAAUAUUACGCAUU	-3.98 ± 0.26	-1.27 ± 0.13
CUAAAGCAAUAUUACGAUAA	-2.17 ± 0.14	-0.422 ± 0.12
GCACAGCAAUAUUACGGGUA	-1.36 ± 0.055	-0.723 ± 0.061
GAUUAGCAAUAUUACGCACC	-1.5 ± 0.081	-0.681 ± 0.084
AUAAAGCAAUAUUACGCCGC	-2.8 ± 0.18	-2.05 ± 0.27
GAUCAGCAAUAUUACGGAGA	-2.08 ± 0.17	-0.869 ± 0.14
AACUAGCAAUAUUACGUUAG	-3.12 ± 0.17	-3.33 ± 0.26
AAGAAGCAAUAUUACGUCGU	-1.31 ± 0.058	-0.567 ± 0.073
UCUGAGCAAUAUUACGCUAA	-3.49 ± 0.34	
UAUAAGCAAUAUUACGGUCC	-0.922 ± 0.44	
AUAUAGCAAUAUUACGGUCU	-0.211 ± 0.076	0.0619 ± 0.1
AUGAAGCAAUAUUACGGAGA	-2.55 ± 0.33	-0.873 ± 0.23
GCCCAGCAAUAUUACGUUCG	-3.71 ± 0.18	-2.52 ± 0.22
AUCUAGCAAUAUUACGUGUG	-2.16 ± 0.1	-1.49 ± 0.12
UUUAAGCAAUAUUACGUAGC		-2.34 ± 0.36

Sequence	self-splicing fitness (ln) (30 °C)	self-splicing fitness (ln) (37 °C)
GCAAAGCAAUAUUACGCGCG	-1.55 ± 0.12	-0.161 ± 0.15
GAUUAGCAAUAUUACGAUAC	-1.24 ± 0.19	-0.415 ± 0.18
AGCUAGCAAUAUUACGUGUA	-3.86 ± 0.18	-1.48 ± 0.12
CGCGAGCAAUAUUACGGAGU	-4.33 ± 0.46	-2.08 ± 0.21
CCAAAGCAAUAUUACGCGUA	-4.41 ± 0.34	-3.75 ± 0.32
GGACAGCAAUAUUACGCUGA	-2.21 ± 0.16	-1.51 ± 0.15
CUCCAGCAAUAUUACGACGA	-3.77 ± 0.26	-2.5 ± 0.18
CCAUAGCAAUAUUACGUACU	-4.18 ± 0.29	-2.3 ± 0.18
CUCGAGCAAUAUUACGUUUA	-3.22 ± 0.41	-3.05 ± 0.4
UCAAAGCAAUAUUACGCCGU	-2.43 ± 0.18	-0.576 ± 0.12
AUGUAGCAAUAUUACGUCCA	-1.65 ± 0.17	-0.252 ± 0.17
CCAUAGCAAUAUUACGUUAU	-3.34 ± 0.14	-3.31 ± 0.21
GGAAAGCAAUAUUACGAAGU	-2.79 ± 0.16	-1.97 ± 0.18
UCCCAGCAAUAUUACGCUCU	-2.77 ± 0.16	-1.7 ± 0.17
UGGUAGCAAUAUUACGUGUG	-1.29 ± 0.071	-0.469 ± 0.082
UGGAAGCAAUAUUACGUGCA	-0.0243 ± 0.057	-0.187 ± 0.067
GGUCAGCAAUAUUACGGGUC	-1.54 ± 0.13	-1.58 ± 0.16
AUCUAGCAAUAUUACGGGCG	-0.656 ± 0.1	-0.967 ± 0.11
AUACAGCAAUAUUACGGAAA	-3.24 ± 0.2	-2.16 ± 0.17
UCAAAGCAAUAUUACGGGUG	-0.366 ± 0.056	0.234 ± 0.074
AUCAAGCAAUAUUACGUCCC	-0.841 ± 0.076	0.17 ± 0.11
AUGGAGCAAUAUUACGGAUU	-2.09 ± 0.13	0.177 ± 0.13
ACUGAGCAAUAUUACGACCA	-2.57 ± 0.39	-1.1 ± 0.28
CACUAGCAAUAUUACGUUCC	-3.39 ± 0.17	-1.65 ± 0.17
GAAAAGCAAUAUUACGUCCU	-0.216 ± 0.089	0.514 ± 0.12

Sequence	self-splicing fitness (ln) (30 °C)	self-splicing fitness (ln) (37 °C)
CCAUAGCAAUAUUACGGUCU	-3.96 ± 0.33	-2.53 ± 0.28
GAAAAGCAAUAUUACGUGCC	-1.69 ± 0.19	-0.25 ± 0.22
GGACAGCAAUAUUACGACCU	-0.544 ± 0.077	-0.13 ± 0.087
CGGCAGCAAUAUUACGAAUU	-3 ± 0.23	-2.6 ± 0.33
CCGAAGCAAUAUUACGAUCU	-3.36 ± 0.34	-2.85 ± 0.29
CAUCAGCAAUAUUACGACAG	0.0306 ± 0.087	0.00869 ± 0.13
ACUAAGCAAUAUUACGAAUA	-2.99 ± 0.23	-2.55 ± 0.25
AGACAGCAAUAUUACGGGGU	-3.82 ± 0.17	-2.25 ± 0.15
GGAGAGCAAUAUUACGAGAU	-2.5 ± 0.36	-2.14 ± 0.34
GAAUAGCAAUAUUACGCAAA	-3.06 ± 0.38	-1.75 ± 0.27
UGUAAGCAAUAUUACGAGGC	-1.16 ± 0.26	-1.17 ± 0.41
CGUUAGCAAUAUUACGGGCG	-3.04 ± 0.24	-2.38 ± 0.3
CGUAAGCAAUAUUACGUGGU	-3.19 ± 0.13	-2.72 ± 0.16
AGGCAGCAAUAUUACGCUUU	-3.17 ± 0.35	-1.41 ± 0.18
AGAUAGCAAUAUUACGAUAA	-2.02 ± 0.11	-1.16 ± 0.11
GUAUAGCAAUAUUACGGUGG	-2.54 ± 0.1	-2.63 ± 0.17
GGUCAGCAAUAUUACGUGGU	-2.54 ± 0.18	-2.17 ± 0.23
GGAUAGCAAUAUUACGAAGA	-2.93 ± 0.34	-1.82 ± 0.31
GUGUAGCAAUAUUACGUCCA	-1.74 ± 0.38	-0.639 ± 0.39
CAGCAGCAAUAUUACGGUCA	-2.45 ± 0.17	-1.22 ± 0.11
CCAGAGCAAUAUUACGACGU	-3.74 ± 0.27	-3.28 ± 0.47
UCAGAGCAAUAUUACGCGGU	-4.12 ± 0.33	-3.04 ± 0.32
AAAAAGCAAUAUUACGGAGA	-3.49 ± 0.19	-3.11 ± 0.18
ACAUAGCAAUAUUACGUUUA	-2.82 ± 0.19	-1.75 ± 0.14
CCCAAGCAAUAUUACGUCUU	-3.41 ± 0.11	-2.25 ± 0.12

Sequence	self-splicing fitness (ln) (30 °C)	self-splicing fitness (ln) (37 °C)
CUACAGCAAUAUUACGGGUG	-0.249 ± 0.037	-0.538 ± 0.053
CCGGAGCAAUAUUACGAUUU	-2.51 ± 0.36	-2.26 ± 0.3
AGGAAGCAAUAUUACGCUGU	-2.29 ± 0.29	
UGUGAGCAAUAUUACGUCAC	-3.91 ± 0.47	
GGAAAGCAAUAUUACGGGGG	-3.94 ± 0.26	-1.45 ± 0.21
GAUUAGCAAUAUUACGGCCC	-0.175 ± 0.083	-0.352 ± 0.12
UACUAGCAAUAUUACGGACC		-1.13 ± 0.33
UUUCAGCAAUAUUACGCAAC	-3.51 ± 0.28	-1.8 ± 0.22
CUGAAGCAAUAUUACGACGG	-0.289 ± 0.15	-0.879 ± 0.14
UCCCAGCAAUAUUACGUUGA	-1.26 ± 0.066	0.408 ± 0.075
CUGGAGCAAUAUUACGGGGC	-4.12 ± 0.46	-2.29 ± 0.46
GGGGAGCAAUAUUACGCUGC	-2.22 ± 0.45	
ACUCAGCAAUAUUACGACUG	-3.86 ± 0.23	-1.47 ± 0.14
UCAAAGCAAUAUUACGCAUA	-2.68 ± 0.17	-1.62 ± 0.16
CUAGAGCAAUAUUACGGUUG	-0.207 ± 0.056	-0.329 ± 0.074
GGCCAGCAAUAUUACGCAAG	-3.48 ± 0.25	-3.15 ± 0.43
CUUAAGCAAUAUUACGGAGC		-4.02 ± 0.39
GAAGAGCAAUAUUACGCCUA	-2.55 ± 0.34	-1.3 ± 0.25
GUAGAGCAAUAUUACGGGUC	-2.19 ± 0.12	-1.37 ± 0.12
ACAAAGCAAUAUUACGCUAG	-1.53 ± 0.072	-1.72 ± 0.086
AAAGAGCAAUAUUACGACAU	-1.897 ± 0.015	-1.26 ± 0.034
UUACAGCAAUAUUACGACCG	-0.642 ± 0.091	-0.0873 ± 0.13
ACACAGCAAUAUUACGGUGA	-1.31 ± 0.068	0.17 ± 0.077
